For 1 molecule, Kd results are on record in patent CN108059681A (BEIJING GEGEN BIOTECHNOLOGY CO LTD; YICON BEIJING MEDICAL …, dated 2018).

The target in the assay is T1, EGFR蛋白 (UniProt P00533 25-645, limits assumed).
T1 construct: The construct is not described; also called 表皮生长因子受体
Nature of the assay: affinity constant; method not stated.

B1: EGFR ScFv (抗EGFR单链抗体) (scFv)
scFv: QVQLQQWGGGVVQPGRSLRLSCAASGFTFSSYAMHWVRQAPGKGLEWVAVISYDGSNKYYADSVKGRFTISRDNSKNTLYLQMDSLRAEDTAVYYCARSGRYFDWLLPFDYGGGGSGGGGSELALTQPPSASVAPGKTARITCGGNNIGSKSVHWYQQKPGQAPVLVIYYDSDRPSGIPERFSGSNSGNTATLTISRVEAGDEADYYCQVWDSSSDQGVFGGGTQLTVL
notes: Human scFv from a phage library, expressed in E. coli; also called 抗EGFR ScFv
Turning to B1, the Kd was determined as 0.284 nM.
